The nature of this series: amyloid nucleation score (Sup35N fusion, yeast selection) (log enrichment); library NNK2; higher = more nucleation; inactive = no reads after selection. The gist of the method:
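Nucleation score is defined as the DiMSum log enrichment of output over input reads, with centring on the mode score of non-aggregating sequences. A minimum of 100 input reads was required for each sequence. Reads came from Illumina sequencing of plasmid inserts from psi-negative yeast expressing Sup35N fused to peptides of 20 random codons, induced with 100 μM copper sulfate for 24 hours and grown 7 days at 30°C on medium lacking adenine and uracil.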

± gives the uncertainty stated by the source.

With VGSSEAFCYGLTDFKRENLA, the amyloid nucleation score result was “inactive”.
The substance KNKTL returned an amyloid nucleation score of 0.576 ± 0.46.
PASISLNFS displayed an amyloid nucleation score of 1.58 ± 0.22.
For the substance PWFKTFWSNMWAVTGW, the amyloid nucleation score was -0.436 ± 1.1.
In the case of DKWAFVRITRQEPPASIRMD, the amyloid nucleation score is -0.939 ± 0.76.
As to HGLEVVQMASSLELQARKKA, the amyloid nucleation score was 0.049 ± 0.34.
With YHMGDGLDVWGRDRSG, the amyloid nucleation score amounted to 0.901 ± 0.27.
Next, GLFGGIHFVANLGTPPCLDE: 1.56 ± 0.31.
Consider LTGWMFISWSLTIPRPPTIE, for which the amyloid nucleation score was -0.849 ± 1.1.
With WHFSLTMFRSERVNVLTASD, the amyloid nucleation score was 1.04 ± 0.27.
For RFWSMETEHDIIALVFASSV the value was 0.096 ± 0.49; for PGSVTGMLWSGTFEVRYLGL, 0.101 ± 0.26; for LRGGTLVDNNLSANNYVYEI, -0.967 ± 0.76.
The substance KSINSFYKRIDVVWGMRSQS registered an amyloid nucleation score of -0.984 ± 0.33.
On to ILQVPRTFFIRSHRSSVHL, for which the amyloid nucleation score result was “inactive”.
Substance TVSGDTSRRSRMNFSFYMQR came in with an amyloid nucleation score of -0.266 ± 1.1.
As for LYVSALTSVRSWGCGNLVLP, the amyloid nucleation score is 3.37 ± 0.08.
The substance VFYTFMTSALGIRVTRSSCL came in with an amyloid nucleation score of 1.12 ± 0.22.
FARGMVRSSTGTM: the amyloid nucleation score was -1.88 ± 0.44.
For IYYGGLKHARVPVTRFEGSP the value was 3.87 ± 0.098.
Take CYGDAWSWEISMFCCVCRGF: the amyloid nucleation score worked out at 7.523 ± 0.042.
Substance FVGTCSHYRGCSVCFITDLL gave an amyloid nucleation score of 6.135 ± 0.057.
Substance STCIMDLSWCKVRRFGSTQV gave an amyloid nucleation score of -0.149 ± 0.79.
In turn, NTLTTFVIGGCCLRFEASYM gave an amyloid nucleation score of 10.52 ± 0.077.
Next, LKATQLYGFYMTEKCVDSSW: -0.549 ± 1; GCLPHGY: 0.663 ± 0.62; YYQSIGLQYSRMKMGCKRND: 0.882 ± 0.18.
RNLGIHKSLFNSAYARAWAV: the amyloid nucleation score is -0.771 ± 0.49.
GSYKSGSSSA yielded an amyloid nucleation score of 2.57 ± 0.1.
HYPQYCFFARKIFITCGYME gave an amyloid nucleation score of 5.22 ± 0.061.
For ASHLVVTLVNKVKCNAVVRG, the amyloid nucleation score came out at 0.758 ± 0.21.
The substance LCISCNVGLGSIKVRNNAFA gave an amyloid nucleation score of 6.12 ± 0.042.
Turning to CYARSASGVAIAVRRKRGVQ, the amyloid nucleation score is 1.23 ± 0.18.
Next, PICHLRGGSISRRSNFIQGC: -1.12 ± 0.76.
Next, SHLTNDVY: 0.614 ± 0.43.
Consider CYVNWGCNGEISGIVFDSMK, for which the amyloid nucleation score result was “inactive”.
For DRNPSGNSERPHVMPHPSVD the value was -0.146 ± 0.32.
In turn, FRTTALLRFKRWDYGVIRNR gave an amyloid nucleation score of 0.021 ± 0.46.
VWSPYKTV: the amyloid nucleation score was -0.101 ± 1.1.
For LCVLLHVTEKLKANSTLSCV the value was -0.317 ± 1.1; for ASASSVIAMRNRMGGLNRFC, -0.302 ± 0.24; for GSWLFREVMPA, -0.51 ± 0.44.
As for IVYLWRNRWVDLADYLLHVM, the amyloid nucleation score came out at 0.313 ± 0.29.
For MGPKSRFRSTRNGVKYL the value was -0.571 ± 0.64.
PRSGVSAKQSCAWNVRDGDR registered an amyloid nucleation score of 0.566 ± 0.39.
The substance VVTLDRGLGHNRKGIQLGFR gave an amyloid nucleation score of 0.547 ± 0.81.
In the case of VRWFCSVISF, the amyloid nucleation score was 2.39 ± 0.14.
LGCICMR: the amyloid nucleation score was 4.09 ± 0.071.
Consider LFSVLL, for which the amyloid nucleation score was -0.916 ± 1.
Take LVLLSFGSV: the amyloid nucleation score is -0.127 ± 1.
For SYLLSRYLRPKGYADNIVYA the value was “inactive”; for IISPVGVRMAYL, 0.176 ± 0.37.
Turning to GRLSISDYIY, the amyloid nucleation score is 1.02 ± 0.61.
Regarding LLFLVCTSFNLDIQWNFALG, the amyloid nucleation score stood at 4.76 ± 0.087.
Next, HVTMCKYYFWYMEIVVVKP: -0.456 ± 0.55.
VKYVIIEHFNWSVSCCAYLR displayed an amyloid nucleation score of 1.37 ± 0.23.
Substance SCFPM returned an amyloid nucleation score of -1.67 ± 0.62.
For the substance SVKIWCFIWEFPCFMLFRAL, the amyloid nucleation score is -0.168 ± 1.1.
Substance YNVDVFWYGLKFNDLVVVHF registered an amyloid nucleation score of 3.73 ± 0.13.
Turning to SLHVTGWFTSDVVFNLWVDV, the amyloid nucleation score is -0.145 ± 0.48.
LRASWLYYFKSKVSFGCKGD displayed an amyloid nucleation score of -0.405 ± 0.41.
WTNFVGLSALFSMWV showed an amyloid nucleation score of -1.54 ± 1.1.
SGQRQLCVWCVCVAGGRIKL yielded an amyloid nucleation score of 6.54 ± 0.076.
In turn, CFSCFIASGDT had an amyloid nucleation score of 7.439 ± 0.026.
On to QNECKIMTLIFCLLRSKQYY, for which the amyloid nucleation score was found to be 0.005 ± 0.65.
In the case of AGPDSVQCRCSLKSSEGSCG, the amyloid nucleation score is 6.776 ± 0.066.
MLCGINGMMSSTLVCGRAII showed an amyloid nucleation score of -0.161 ± 0.65.
The substance SEMGTVRRYCLRAYRVCVAY gave an amyloid nucleation score of 0.757 ± 0.57.
For TLYYIVRHQICANFYRMYNG, the amyloid nucleation score entry is “inactive”.
Consider KLHRLTGGHYDPNCDNGPVD, for which the amyloid nucleation score is 3.68 ± 0.059.
The substance DGVFRCKKRSSNFSDKSVCM had an amyloid nucleation score of 0.641 ± 0.74.
For KRWLKMWKRWQRRFMCGLLS, the amyloid nucleation score worked out at 0.472 ± 0.32.
Next, CHVYYVQFVLAD: -0.604 ± 0.76; VGWKTGDRPSEMSSSWDLNG: -0.093 ± 0.37.
As for WSKEFEIGSNHSKSNTRCGR, the amyloid nucleation score stood at 0.244 ± 0.46.
Regarding MVGNWDSV, the amyloid nucleation score is -0.011 ± 0.49.
In the case of RKYNGCSFQHYGLSVRTRSL, the amyloid nucleation score was determined as 2.37 ± 0.2.
Consider VILYGFNKVMECSTYVVV, for which the amyloid nucleation score was -0.804 ± 1.1.
For RGDHLGCSII, the amyloid nucleation score is -0.101 ± 0.79.
Regarding CHDMSSACLYSVGWS, the amyloid nucleation score result was “inactive”.
For PVIFGTR the value was 0.192 ± 1; for PNRKSYLAYNMDSPT, -0.32 ± 0.24; for LNVLKNT, 0.187 ± 0.24.
In turn, VKMLSLKSIHLSYFCECASW showed an amyloid nucleation score of 0.28 ± 0.21.
As for KGAMA, the amyloid nucleation score stood at 0.539 ± 0.39.
VICVLSYADCSKLGWGHSLT: the amyloid nucleation score amounted to 8.868 ± 0.043.
Substance KKFSSMYRSEFGNSI gave an amyloid nucleation score of -0.65 ± 0.41.
TGMQMFMVVWLGQLDRSDTI came in with an amyloid nucleation score of 1.07 ± 0.28.
In turn, KLMVPA yielded an amyloid nucleation score of 0.248 ± 0.28.
Consider FFCFFKIYFWMRAAGTSLNR, for which the amyloid nucleation score was -0.861 ± 1.
For LLLHSIQIYDMRR, the amyloid nucleation score is 5.53 ± 0.089.
KPDCVLTTGFTSSLRFIMKK: the amyloid nucleation score is -0.007 ± 0.55.
NLMGFCYVSAEWVFGGRPGY returned an amyloid nucleation score of 1.97 ± 0.14.
Regarding IWSYSSFGVD, the amyloid nucleation score is -0.064 ± 1.1.
In turn, SLDFAFRFFSICVICGQNAR returned an amyloid nucleation score of 4.76 ± 0.082.
As for HKEEV, the amyloid nucleation score stood at 0.163 ± 0.53.
Take CISKLKFLGCRVE: the amyloid nucleation score result was “inactive”.
Substance MDCRLV yielded an amyloid nucleation score of 0.216 ± 0.51.
As to LNWFFLL, the amyloid nucleation score worked out at 0.937 ± 0.26.
For MTRYDDRFVQNRSSWLDNFD the value was -0.909 ± 0.48; for STKITAESGR, 0.502 ± 0.41; for GTRLNYFNWIICGGETGCAA, -0.171 ± 1.
The substance WFFKTAMWVITT returned an amyloid nucleation score of 0.081 ± 1.1.
The substance WEIYIGTLTIKWLFTMDRLV showed an amyloid nucleation score of -0.133 ± 0.23.
Next, ILAVKHFRFMVGSKISGGSG: 2.15 ± 0.094; LNNRLVFSKVHGCRICNRRS: “inactive”.
As to VIIFFFVFRCMPDLIQVYCV, the amyloid nucleation score is -1.72 ± 1.
The substance ISVDTRFGLNVCFEGCCAYR had an amyloid nucleation score of 7.449 ± 0.062.
As to VVRKRSKMKLRRIHFSWLVW, the amyloid nucleation score came out at 0.744 ± 0.26.
Substance ISGVVFSTTRLLQFDGCRVG returned an amyloid nucleation score of 1.31 ± 0.52.
RYWLLKFNCVLWEISFCRTM showed an amyloid nucleation score of 5.89 ± 0.07.
Regarding LTRQYNNRNPMSLRAIGYAF, the amyloid nucleation score result was “inactive”.
With HSFIGSRIVSFGFDVRGRWA, the amyloid nucleation score came to 4.91 ± 0.059.
For WRDGSYLFPDVPERPSRNSG, the amyloid nucleation score result was “inactive”.
SSYESLCKIYLNFCQTD returned an amyloid nucleation score of 6.761 ± 0.059.
For YFNSLLPLLSPFYRPNIALL the value was -0.299 ± 0.56; for CYCSSL, -0.253 ± 0.2; for KNWVYVAWRRENYEQPFIR, -0.299 ± 1.
For RSCYVYRN, the amyloid nucleation score entry was “inactive”.
As for GDKYICELHWRFLGQNSVW, the amyloid nucleation score is 4.07 ± 0.11.
Turning to IVGVSFKSVNTNRIDPVFLF, the amyloid nucleation score result is “inactive”.
Next, YCYVCDVNVYVYLTAIGNKF: 7.43 ± 0.085; SCPIRTL: 0.424 ± 0.43; RRNMVSWVSDDEQFSDKPLA: 0.121 ± 0.4.
FTVMFLLKMISFKGALHLRL returned an amyloid nucleation score of -0.764 ± 0.65.
Next, GRIILTLFNYYT: 6.878 ± 0.062; WNYSNRNDYELFRTLK: 0.316 ± 0.57.
SKNSYSAHPKL: the amyloid nucleation score was 4.83 ± 0.06.
As for EVDLRKSGLSGRVKFYLMLW, the amyloid nucleation score was 0.839 ± 0.57.
The substance CTLRSLEAVLRVLIGYALRH showed an amyloid nucleation score of 0.223 ± 0.3.
Next, VHLNTFATFMGWLTDSWLGV: “inactive”; ALRISQFCIL: -0.261 ± 1.1.
LSLWTIGISPVGYRLTNRHQ came in with an amyloid nucleation score of -0.315 ± 1.
Next, TLGMYFFVSMLSLLVSVNGF: -0.427 ± 1.1; CDRLELRN: 0.065 ± 0.43; HPHKS: -0.325 ± 0.76.
Regarding HIGILTT, the amyloid nucleation score came out at 1.64 ± 0.32.
Next, IGSVGTPWE: -0.042 ± 0.45.
YSYFSYVLRFMCSYLLALTQ: the amyloid nucleation score entry is “inactive”.
PGCHEVSKF gave an amyloid nucleation score of -1.14 ± 0.47.

The record behind these values is the supplement of paper PMC12042874.
